{"source": "patent US20220396632A1", "about": "(VERSEAU THERAPEUTICS, published 2022)", "binders": {"B1": {"name": "PSG3 (antibody, V domains shown)", "VH": "QVQLVQSGAEVKKPGSSVRVSCKASGGSFSSYGIHWVQQAPGQGLEWMGRIIPVLRIRNYAQKFHDRVTIDADTSTGTAYMELSSLTSDDTAVYYCAGSRQGVAPTGYWGQGTMVTVSS", "VL": "QAVLTQPSSLSASPGASASLTCNLRSGIDVGTYRIYWYQQKPGSPPQYLLRYKSDSDKQQGSGVPSRFSGTKDASANAGILLISGLQSEDEADYYCMIWHSNGWVFGGGTKLTVL", "notes": "Control anti-PSGL-1 mAb; only variable domains given"}, "B2": {"name": "20H10 (antibody, V domains shown)", "VH": "QVQLQQPGTELVKPGASVKLSCKASGYTFTNFWMHWVRQRPGQGLEWIGKINPGNGGTRYNEKFKTKATLTVDRSSSTACIQLSSLTSEDSAVYYCTSTNWDPYFDYWGQGTTLTVSS", "VL": "not shown", "notes": "Mouse hybridoma mAb; only variable domains given"}, "B3": {"name": "18F02.001 (antibody, IgG4, V domains shown)", "VH": "QVQLVQSGAEVKKPGSSVKVSCKASGYTFTSYWMHWVRQAPGQGLEWMGMIHPNSGRTNYNEKFKSRVTITVDKSTSTAYMELSSLRSEDTAVYYCARSDYWGQGTLVTVSS", "VL": "DIVMTQTPLSLSVTPGQPASISCRSSKSLLHSDGITYLYWFLQKPGQSPQLLIYRMSNLASGVPDRFSGSGSGTDFTLKISRVEAEDVGVYYCAQMLEFPRTFGQGTKLEIK", "notes": "Humanised"}, "B4": {"name": "18F02.002 (antibody, IgG4, V domains shown)", "VH": "B3 VH with Q1E", "VL": "B3 VL", "notes": "Humanised"}, "B5": {"name": "SELK1 (antibody, V domains shown)", "VH": "QVQLQQSGPGLVKPSQTLSLTCAISGDSVSSNIAAWHWIRLSPSRGLEWLGRTYYRRSKWNYDYALSVKSRININPDTSKNLFSLQLNSVTPEDTAVYYCTRGGGRAHSAWGQGTLVTVSS", "VL": "EIVLTQSPGTLSVSPGERATLSCRASQSVSRSHLAWYQQKPGQAPRLLIFGASSRATGIPDRFSGSGSGTDFTLTISRLEPEDFAVYYCQQYGRPGVTFGQGTKVEIK", "notes": "as for B1"}}, "key": {"[1]": {"target": "T1, Recombinant human PSGL-1(ECD)-hFc1 (R&D Systems, Cat. 3345-PS) (human, UniProt Q14242 42-305)", "T1 construct": "Bought; Gln42-Val295 counted on AAC50061; also called PSGL-1-Fc; PSGL-1-hFc1 chimera; not shown: human IgG1 Fc, Pro100-Lys330", "T1 sequence": "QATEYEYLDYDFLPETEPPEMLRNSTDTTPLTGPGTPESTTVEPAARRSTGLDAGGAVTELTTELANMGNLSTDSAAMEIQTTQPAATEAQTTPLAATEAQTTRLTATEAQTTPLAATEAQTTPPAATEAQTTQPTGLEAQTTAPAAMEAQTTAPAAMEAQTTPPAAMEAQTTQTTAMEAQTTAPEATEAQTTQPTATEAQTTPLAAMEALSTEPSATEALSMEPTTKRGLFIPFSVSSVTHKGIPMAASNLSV", "assay": "ELISA, plate-bound target", "method": "(§1) Two ELISA methods were performed. One procedure detected mAb binding to its plate-immobilized target and the other measured the immobilized antibody's ability to capture biotinylated PSGL-1₄₂₋₆₂. […] The plate was incubated for 45 min at 37° C. Plates were washed 3 times with wash buffer (PBS containing 0.05% tween 20, pH 7.4) and a single concentration (2 to 500 nM) or serially diluted (0.002-100 nM) anti-PSGL-1 mAb was added (25 ul/well) in assay buffer into appropriate wells. The plate was incubated for 45 min at 37° C., washed 3 times, and an appropriate HRP-conjugated secondary antibody added (25 ul/well) (HRP goat anti-mouse or anti-human IgG). After 45 min incubation at 37° C., the plate was washed, and antibody bound to plate-immobilized target was determined at A450 nm using HRP substrate (3,3′,5,5′-etramethylbenzidine (TMB)). For each antibody, duplicate values were averaged and assay background was subtracted. Except for the following, ELISAs involving plate-immobilized mAb capturing of biotinylated PSGL-1₄₂₋₆₂ peptides was performed in the same manner as described above: 3 ug/mL/25 ul per well of mAb was coated directly onto microtiter plate wells; biotinylated unmodified or sulfotyrosine PSGL-1₄₂₋₆₂ was serially diluted (3 nM-3 uM) into appropriate wells, and antibody-bound peptide was detected using HRP-streptavidin (Jackson Immunoresearch, Cat. #016-030-084)."}, "[2]": {"target": "T2, Biotin Y46,48,51(SO3) PSGL-1(42-62) peptide (human, sulfotyrosine at Y46, Y48 and Y51; C-terminal Lys-biotin)", "T2 construct": "also called fully sulfated N-terminal PSGL-1 peptide", "T2 peptide": "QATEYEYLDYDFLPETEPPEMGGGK", "assay": "ELISA, plate-bound target", "method": "as §1"}, "[3]": {"target": "T3, Biotin sY51 PSGL-1(42-62) peptide (human, sulfotyrosine at Y51; C-terminal Lys-biotin)", "T3 construct": "also called Y51(SO3) PSGL-1(42-62)", "T3 peptide": "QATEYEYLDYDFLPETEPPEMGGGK", "assay": "capture ELISA; against 3 x sY peptide", "method": "as §1"}, "[4]": {"target": "T2, Biotin Y46,48,51(SO3) PSGL-1(42-62) …", "assay": "capture ELISA; against 3 x sY peptide", "method": "as §1"}, "[5]": {"target": "T4, Biotin sY48 PSGL-1(42-62) peptide (human, sulfotyrosine at Y48; C-terminal Lys-biotin)", "T4 construct": "also called sY48S", "T4 peptide": "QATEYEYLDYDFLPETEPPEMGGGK", "assay": "capture ELISA; against 3 x sY peptide", "method": "as §1"}, "[6]": {"target": "T3, Biotin sY51 PSGL-1(42-62) peptide", "assay": "ELISA, plate-bound mAb captures biotin peptide", "method": "as §1"}, "[7]": {"target": "T2, Biotin Y46,48,51(SO3) PSGL-1(42-62) …", "assay": "ELISA, plate-bound mAb captures biotin peptide", "method": "as §1"}, "[8]": {"target": "T4, Biotin sY48 PSGL-1(42-62) peptide", "assay": "ELISA, plate-bound mAb captures biotin peptide", "method": "as §1"}, "[9]": {"target": "T5, PSGL-1(42-62) N-terminal peptide, sulfation state not told at the place (human, not fully specified; sulfation of Y46, Y48, Y51 not stated for these table columns)", "T5 peptide": "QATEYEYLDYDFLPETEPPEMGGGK", "assay": "mAb binding to PSGL-1(42-62)"}, "[10]": {"target": "T6, Cynomolgus PSGL-1(ECD)-HIS (cynomolgus macaque)", "T6 construct": "also called Cyno PSGL1-His", "T6 chain": "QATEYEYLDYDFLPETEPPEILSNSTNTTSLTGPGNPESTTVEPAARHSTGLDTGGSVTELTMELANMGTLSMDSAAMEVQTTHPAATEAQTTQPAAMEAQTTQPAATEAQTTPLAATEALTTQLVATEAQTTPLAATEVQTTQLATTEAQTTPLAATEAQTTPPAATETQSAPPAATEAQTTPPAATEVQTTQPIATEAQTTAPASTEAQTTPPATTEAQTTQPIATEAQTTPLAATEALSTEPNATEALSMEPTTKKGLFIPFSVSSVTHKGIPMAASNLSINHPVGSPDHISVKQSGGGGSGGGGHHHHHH", "assay": "ELISA, plate cyno PSGL-1(ECD)-HIS", "method": "Antibody binding to plate-immobilized cyno PSGL-1(ECD) was determined either at one concentration (20 nM) or by generating full antibody binding curves (0.003-200 nM). A typical ELISA was performed by overnight coating at 4° C. with 3 ug/mL/25 ul per well of recombinant cyno PSGL-1(ECD) protein in PBS, pH 7.4, in high binding half-well plates (Corning Cat. #3690). […] Anti-PSGL-1 IgG in assay buffer (blocking buffer containing 0.05% tween 20) was added into test and control wells (20 nM/25 ul/well) and the plate incubated for 45 min at 37° C. […] The plate was incubated for 45 min at 37° C., and mAb bound to plate-immobilized target determined at A450 nm using HRP substrate (3,3′,5,5′-tetramethylbenzidine (TMB)). For each antibody, duplicate values were averaged and assay background subtracted."}, "[11]": {"target": "T2, Biotin Y46,48,51(SO3) PSGL-1(42-62) …", "assay": "ELISA, plate-bound mAb captures biotin 3 x sY peptide", "method": "(§2) A typical ELISA for N-terminal PSGL-1 reactive humanized mAbs binding to Y_{46,48,51}(SO₃) PSGL-1₍₄₂₋₆₂₎ involved coating high binding half-well plates (Corning Cat. #3690) with 3 ug/mL/25 ul per well of the mAbs or with an isotype hG4 control in PBS, pH 7.4, overnight at 4° C. […] Biotinylated Y_{46,48,51}(SO₃) PSGL-1₍₄₂₋₆₂₎ was added (25 ul per well) in duplicate at 2.8 uM in assay buffer (blocking buffer containing 0.05% tween 20) and serially diluted into test and control (just blocked) wells, and the plate incubated for 45 min at 37° C. The plate was washed ×3 and an appropriate HRP-conjugated streptavidin was added (25 ul per well; Jackson Immunoresearch, Cat. #016-030-084) and the plate was incubated for 45 min at 37° C. […] For each antibody, an EC50 value was determined from sigmoidal fitted peptide titration curve."}, "[12]": {"target": "T2, Biotin Y46,48,51(SO3) PSGL-1(42-62) …", "assay": "capture ELISA; against parent 18F02", "method": "as §2"}, "[13]": {"target": "T7, Biotin sY46 PSGL-1(42-62) peptide (human, sulfotyrosine at Y46; C-terminal Lys-biotin)", "T7 peptide": "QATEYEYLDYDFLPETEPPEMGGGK", "assay": "ELISA, plate-bound mAb captures biotin peptide", "method": "as §1"}}, "note": "Changes are numbered by the printed parent chain."}
{"binder": "B1", "values": [{"measurement": "EC50", "setting": "[1]", "value": "~0.1", "unit": "nM"}, {"measurement": "EC50", "setting": "[2]", "value": 0.44, "unit": "nM"}, {"measurement": "EC50/EC50 3x(SO3)Y", "setting": "[3]", "value": "~6", "unit": "fold"}, {"measurement": "EC50/EC50 3x(SO3)Y", "setting": "[4]", "value": 1, "unit": "fold"}, {"measurement": "EC50/EC50 3x(SO3)Y", "setting": "[5]", "value": "~6", "unit": "fold"}, {"measurement": "EC50", "setting": "[6]", "value": "~600", "unit": "nM"}, {"measurement": "EC50", "setting": "[7]", "value": 93, "unit": "nM"}, {"measurement": "EC50", "setting": "[8]", "value": "~600", "unit": "nM"}]}
{"binder": "B2", "values": [{"measurement": "binding result", "setting": "[9]", "value": "no binding"}, {"measurement": "binding result", "setting": "[10]", "value": "no binding"}]}
{"binder": "B3", "values": [{"measurement": "EC50", "setting": "[11]", "value": 160, "unit": "nM"}, {"measurement": "N-term peptide EC50 (normalized)", "setting": "[12]", "value": 2.3, "unit": "fold"}]}
{"binder": "B4", "values": [{"measurement": "EC50", "setting": "[11]", "value": 150, "unit": "nM"}, {"measurement": "N-term peptide EC50 (normalized)", "setting": "[12]", "value": 2.1, "unit": "fold"}]}
{"binder": "B5", "values": [{"measurement": "EC50", "setting": "[1]", "value": 0.02, "unit": "nM"}, {"measurement": "EC50", "setting": "[2]", "value": 0.07, "unit": "nM"}, {"measurement": "EC50", "setting": "[6]", "value": 129, "unit": "nM"}, {"measurement": "EC50", "setting": "[7]", "value": 6.2, "unit": "nM"}, {"measurement": "EC50", "setting": "[13]", "value": 167, "unit": "nM"}, {"measurement": "EC50", "setting": "[8]", "value": 8.34, "unit": "nM"}]}
